Literature values in publication PMC5413910.

Molecular target: linear (Met1-linked) diubiquitin (Homo sapiens) (UniProt P0CG48)

Chain of OTULIN (Q96BN8 whole entry): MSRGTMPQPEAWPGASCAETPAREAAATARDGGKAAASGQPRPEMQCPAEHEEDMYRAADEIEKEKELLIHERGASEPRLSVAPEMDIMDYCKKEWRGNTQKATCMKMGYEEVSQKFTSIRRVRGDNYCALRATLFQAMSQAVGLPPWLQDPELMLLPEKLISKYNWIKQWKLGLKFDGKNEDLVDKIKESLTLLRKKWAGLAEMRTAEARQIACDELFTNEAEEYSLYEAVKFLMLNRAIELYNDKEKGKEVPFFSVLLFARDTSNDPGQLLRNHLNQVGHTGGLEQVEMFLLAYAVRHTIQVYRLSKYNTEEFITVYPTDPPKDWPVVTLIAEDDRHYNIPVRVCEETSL

Kd: 150 nM
Substance: OTULIN (from UniProt Q96BN8)
